One substance from patent US20260001947A1 can be followed below.

The target in the test is human PD-L1 extracellular domain protein displayed on the membrane of MC38-PD-L1 cells (human) (UniProt Q9NZQ7). Briefly: flow cytometry on MC38-PD-L1 cells, directly PE-labelled antibody, 0.5 µl; Blank-PE shows 0.13% in the same gate.
human PD-L1 extracellular domain protein displayed on the membrane of MC38-PD-L1 cells (human), sequence (Q9NZQ7 19-238): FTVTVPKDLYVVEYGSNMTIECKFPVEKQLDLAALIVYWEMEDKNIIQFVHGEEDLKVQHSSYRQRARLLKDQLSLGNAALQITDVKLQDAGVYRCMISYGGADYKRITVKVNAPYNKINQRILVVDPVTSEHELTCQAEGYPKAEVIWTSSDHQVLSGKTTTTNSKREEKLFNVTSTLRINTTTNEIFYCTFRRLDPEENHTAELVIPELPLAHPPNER

For the substance “PE anti-human PD-L1 (BioLegend, clone number: 29E-2A3) (antibody)”, the % of cells in gate M6-2 is 99.4%.
